Data on one molecule can be found in patent US20210132079A1, “ANTIBODY” (UCB Biopharma SRL, priority 2015, published 2021).

One experiment has as its target T1, Mouse TNFα (Mus musculus, UniProt P06804).
T1 construct: made in house
T1 sequence (P06804 80-235 limits assumed): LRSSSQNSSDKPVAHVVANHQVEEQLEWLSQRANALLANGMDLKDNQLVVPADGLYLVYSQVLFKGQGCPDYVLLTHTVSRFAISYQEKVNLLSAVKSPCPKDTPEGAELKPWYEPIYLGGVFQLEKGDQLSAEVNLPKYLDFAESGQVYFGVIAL
The experiment is described as follows: BIAcore surface plasmon resonance, captured IgG, mouse TNFα +/− test compound. Format: binding. As for the experimental part: (§1) Surface plasmon resonance was performed at 25° C. using a BIAcore T200 (GE Healthcare). Anti-Mouse Fc (Jackson 115-006-071) was immobilised on a […] Sensor Chip (GE Healthcare) via amine coupling chemistry to a capture level of 6000 response units. HBS-EP buffer (10 mM HEPES pH 7.4, 0.15 M NaCl, 3 mM EDTA, 0.05% (v/v) surfactant P20—GE Healthcare)+1% DMSO was used as the running buffer.
(§2) The surface was regenerated at a flow-rate of […] by a 60 s injection of 40 mM HCl×2 and a 30 s 5 mM NaOH. Double referenced background subtracted binding curves were analysed using the T200 Evaluation software (version 1.0) following standard procedures. Kinetic parameters were determined from the fitting algorithm.
In general terms: SPR reads the build-up and loss of mass on a sensor chip optically.

Experiment [1] concerns the target human TNFα complexed with compound (1) (Homo sapiens, UniProt P01375). The experiment is described as follows: Size exclusion chromatography (HPLC) of mouse Fab with TNFα-compound complex. It is filed as binding. As to conditions: Fab at 0.5×-2× molar excess.
A further experiment concerns membrane TNFα. Briefly: FACS assay with engineered NS0 cell line overexpressing membrane TNFα. It is filed as cell-based. The following applies: Fab fragments; NS0 cells incubated with compound (1) or DMSO control. As for the experimental part:
An engineered NS0 cell line, which overexpresses membrane TNFα, due to knock-out of the TACE cleavage site was incubated with 0.001-10 μM compound (1) or 0.1% DMSO for 1 h at 37° C. Cells were washed, fixed and stained with antibody Fab fragments at 0.01 or 0.1 μg/ml for 1 hour on ice. (Secondary antibody was anti-mouse Fab-DyeLight488 from Jackson ImmunoResearch).
There is no staining with the DMSO controls.
(In general: A flow cytometer gives signals particle by particle.)

The target in experiment [2] is T2, Human TNFα (Homo sapiens, UniProt P01375). Briefly: BIAcore surface plasmon resonance, captured IgG, human TNFα +/− test compound. Format: binding. Details: Soluble form of human TNFα; made in house. As for the experimental part:
as §1, §2
Target sequence in this assay (P01375 with tags, fused parts or gaps): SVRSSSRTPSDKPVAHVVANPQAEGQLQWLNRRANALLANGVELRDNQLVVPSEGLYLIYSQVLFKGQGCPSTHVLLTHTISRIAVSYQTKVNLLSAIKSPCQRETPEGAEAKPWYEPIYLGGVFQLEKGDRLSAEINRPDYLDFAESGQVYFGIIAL

The target of experiment [3] is T2, Human TNFα. The experiment is described as follows: FACS assay with HEK Jumpin cells overexpressing TNF-RI, receptor-bound TNFα. It is filed as cell-based. Further details: host or cells: HEK Jumpin cells (carry the TNF-RI. As to conditions: antibody at 1 and 10 μg/ml; TNFα pre-incubated with compound (1) or DMSO control. On the procedure: HEK cells were trypsinised and incubated for 2 h in medium to allow recovery of digested TNFRI levels.
Target sequence in this assay (P01375 77-233 limits assumed): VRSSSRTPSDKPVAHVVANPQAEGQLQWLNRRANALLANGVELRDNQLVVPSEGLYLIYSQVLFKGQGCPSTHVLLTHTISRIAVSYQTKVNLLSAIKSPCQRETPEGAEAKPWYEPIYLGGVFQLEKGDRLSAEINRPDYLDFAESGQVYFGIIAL
Target sequence in this assay (P19438 22-455 partner limits assumed): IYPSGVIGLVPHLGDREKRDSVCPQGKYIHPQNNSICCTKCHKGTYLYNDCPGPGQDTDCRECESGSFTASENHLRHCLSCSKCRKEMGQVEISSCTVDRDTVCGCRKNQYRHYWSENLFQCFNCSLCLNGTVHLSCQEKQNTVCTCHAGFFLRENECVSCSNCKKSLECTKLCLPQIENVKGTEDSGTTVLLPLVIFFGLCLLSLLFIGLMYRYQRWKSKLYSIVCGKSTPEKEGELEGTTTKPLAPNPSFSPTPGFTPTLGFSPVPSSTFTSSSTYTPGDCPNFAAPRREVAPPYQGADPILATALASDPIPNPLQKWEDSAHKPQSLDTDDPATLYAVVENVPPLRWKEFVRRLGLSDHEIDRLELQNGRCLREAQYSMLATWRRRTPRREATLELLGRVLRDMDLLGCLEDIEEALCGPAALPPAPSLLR

Sequence of membrane TNFα (P01375 89-233 limits assumed): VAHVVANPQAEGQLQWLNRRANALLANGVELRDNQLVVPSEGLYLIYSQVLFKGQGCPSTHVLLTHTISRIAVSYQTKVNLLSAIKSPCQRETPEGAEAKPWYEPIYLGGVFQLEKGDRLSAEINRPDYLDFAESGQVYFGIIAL
Sequence of human TNFα complexed with compound (1) (P01375 77-233 limits assumed, one chain of several): as the sequence (P01375 77-233 limits assumed) above

B1: CA185_01979: rat-derived conformation-selective antibody to compound-bound TNFα; LCVR SEQ ID NO: 22, HCVR SEQ ID NO: 23 (antibody, V domains shown)
VH: EVHLVESGPGLVKPSQSLSLTCSVTGYSITNSYWDWIRKFPGNKMEWMGYINYSGSTGYNPSLKSRISISRDTSNNQFFLQLNSITTEDTATYYCARGTYGYNAYHFDYWGRGVMVTVSS
VL: DIQMTQSPASLSASLEEIVTITCQASQDIGNWLSWYQQKPGKSPHLLIYGTTSLADGVPSRFSGSRSGTQYSLKISGLQVADIGIYVCLQAYSTPFTFGSGTKLEIK
modifications: HCVR of 1979; DIQMTQSPASLSASLEEIVTITCQASQDIGNWLSWYQQKPGKSPHLLIYGTTSLADGVPSRFSGS RSGTQYSLKISGLQVADIGIYVCLQAYSTPFTFGSGTKLEIK
With B1, the Kd (usually the concentration at which binding is half-saturated) with Mouse TNFα (Mouse TNFα + compound (1)) turned out to be 0.38 nM; with Mouse TNFα (Mouse TNFα apo), 27 nM. In addition, the ka with Mouse TNFα (Mouse TNFα + compound (1)) turned out to be 160000 M⁻¹ s⁻¹; in the experiment with Mouse TNFα (Mouse TNFα + compound (2)), 190000 M⁻¹ s⁻¹; with Mouse TNFα (Mouse TNFα apo), 72000 M⁻¹ s⁻¹; with Human TNFα [2] (Human TNFα + compound (1)) it was 470000 M⁻¹ s⁻¹; in the experiment with Human TNFα [2] (Human TNFα + compound (2)), 570000 M⁻¹ s⁻¹; in the experiment with Human TNFα [2] (Human TNFα apo), 110000 M⁻¹ s⁻¹. Further, the kd worked out at 6.3e-05 s⁻¹ with Mouse TNFα (Mouse TNFα + compound (1)); 3.5e-05 s⁻¹ with Mouse TNFα (Mouse TNFα + compound (2)); 0.002 s⁻¹ with Mouse TNFα (Mouse TNFα apo); 1.6e-05 s⁻¹ in the experiment with Human TNFα [2] (Human TNFα + compound (1)); 3.3e-05 s⁻¹ in the experiment with Human TNFα [2] (Human TNFα + compound (2)); 0.00071 s⁻¹ with Human TNFα [2] (Human TNFα apo). Further, the “stoichiometry of Fab binding to TNFα trimer” value in experiment [1] is recorded as 1 Fab: 1 TNFα trimer. For the same molecule, the “FACS staining of membrane-bound TNFα” value with membrane TNFα was “only recognise TNF which has been pre-incubated with compound (1)”. In the experiment with Human TNFα [3], the “FACS staining of receptor-bound TNFα” value is “only recognise TNFα which has been pre-incubated with compound (1)”.
